Data published in patent publication US20100093090A1, “METHOD AND KIT FOR EFFICIENT REPROGRAMMING OF SOMATIC CELLS” (priority 2008, published 2010).

Tests used:
[1] = tested on: iPS cell generation efficiency; assay: iPS cell generation in presence of HDAC inhibitors (VPA, SBHA, Butyrate); type: cell-based
Method: FIG. 10. The colony number shown are those induced from 10^4 cells plated on the feeder cells by different combinations of factors. IPS colony numbers were counted on day 25 post-transduction. (O: OCT4; S:SOX2; K: KLF4; G: GFP; P: P53siRNA; U: UTF1). (A) In presence of VPA, iPS cell generation efficiency could be enhanced by UTF1 or P53 siRNA, or their combination. […] VS: VPA+SBHA; VB: VPA+Butyrate. The working concentrations of VPA, SBHA and Butyrate in this study were 0.5 mM, 2 μM, 0.1 mM, respectively.
Recently, it is reported that iPS cells could be generated when contacting with HDAC inhibitors (and/or other compounds) by a much higher efficiency. We further tested whether UTF1 and p53 siRNA would still work in the context of HDAC inhibitors.

[2] = tested on: human adult foreskin fibroblast (hAFF) cells; assay: Human iPS cell generation from fibroblasts by lentiviral transduction of reprogramming factors (colony counting, AP staining, GFP silencing); type: cell-based
Method: 5×10^4 cells were plated onto a 10-cm dish. Shown are numbers of total colonies and AP-highly positive colonies (in parenthesis) counted on day 18 post-transduction. “4” indicates the reported four reprogramming factors OCT4 (O), SOX2 (S), KLF4 (K) and c-MYC (M). […] (C-E): Total colony numbers (left panels), highly AP-positive colony numbers (middle panels) and iPS colony numbers (right panels). The colony number shown are those induced from 10^5 cells plated on the feeder cells by different combinations of factors. The results of three independent experiments are shown with different colors. […] Numbers were counted on day 25 post-transduction; (D) The six factors (4PU) combination minus the reported four reprogramming factors, respectively. (Da and Db) Numbers were counted on day 25 post-transduction. (Dc) Numbers were counted on day 35 post-transduction. […] Numbers were counted on day 35 post-transduction.
Lentiviral vector containing OCT4, SOX2, c-MYC, KLF4, UTF1, p53 siRNA and control p53 siRNA respectively (15 μg) together with pMDLg/pRRE, RSV/Rev and VSV-G (FIG. 13 A, B, C) (5 μg for each), were respectively transfected into 293T cells with the Ca3(PO4)2-method in 10-cm dishes and incubated overnight. 12 hours later, the medium was changed and virus was collected after subsequent 36 hours cultivation. Viral supernatant was collected and filtered through 0.45 μm filters (Millipore) and then placed onto target fibroblasts supplemented with 10 ng/μl polybrene (Sigma-Aldrich). Typically, 1×10^5 fibroblasts in a well of 6-well plate were infected with 250 μl viral supernatant of each gene. The viral supernatant was changed with fibroblast culture medium after 12 hours. […] 5-6 days later, the infected cells were collected, counted, and plated onto MEF feeders (typically 2×10^4 to 1×10^5 cells for a 10-cm dish). […] The efficiency to generate iPS cells was calculated according to Takahashi's method, by which the number of cell colonies was counted and divided by the number of cells plated onto feeders (Takahashi et. al., 2007) (FIGS. 1C, 1D, 1E, 5C, and 5D). […]

p53 = assay: Knockdown of p53 expression by p53 shRNA in hAFF; type: cell-based, human; settings: nonsense siRNA as control
[3] = with the four factors, day 25 post-transduction

B1: p53 siRNA: lentiviral pLL3.7-encoded shRNA against p53; DNA sequence encoding it GACTCCAGTGGTAATCTACT (SEQ ID NO: 6 and 7) (nucleic acid)
DNA 1: TGACTCCAGTGGTAATCTACTTCAAGAGAGTAGATTACCACTGGAGTCTTTTTTC
DNA 2: TCGAGAAAAAAGACTCCAGTGGTAATCTACTCTCTTGAAGTAGATTACCACTGGAGTCA
- reprogramming efficiency when VPA was added ([1]; VPA 0.5 mM, 10^4 cells plated, day 25 post-transduction): enhance the reprogramming efficiency significantly
- reprogramming efficiency in presence of two HDAC inhibitor combination ([1]; VPA+SBHA or VPA+Butyrate, 0.5 mM, 2 μM, 0.1 mM, day 25): enhances reprogramming efficiency
- iPS cells obtained out of every 100,000 human adult fibroblast cells after infection ([2]; together with Oct4, Sox2 and Klf4, without c-Myc, about 1 month post-infection, on average): about 30
- highly AP-positive colony numbers and iPS colony numbers [2, 3]: did not further exert its effect
- total numbers of cell colonies [2, 3]: dramatically enhanced
- knockdown of p53 expression (p53): efficient
